Measured values reported in US20230212291A1 (BEIGENE, published 2023).

Target: T1, full-length human OX40 expressed on HuT78 cells (HuT78/OX40) (human, UniProt P43489 29-277)
T1 sequence: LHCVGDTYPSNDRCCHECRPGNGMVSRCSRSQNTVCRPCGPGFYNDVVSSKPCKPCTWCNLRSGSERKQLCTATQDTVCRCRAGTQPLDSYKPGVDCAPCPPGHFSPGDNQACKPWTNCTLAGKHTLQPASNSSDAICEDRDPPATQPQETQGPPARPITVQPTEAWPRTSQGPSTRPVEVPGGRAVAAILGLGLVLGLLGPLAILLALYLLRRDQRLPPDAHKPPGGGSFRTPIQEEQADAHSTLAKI
Experiment: cell-based or functional assay

ADCC (LDH release), NK92MI/CD16V effector cells, HuT78/OX40 target cells (EC50): 27 ng/mL
IL-2 production by HuT78/OX40 cells co-cultured with HEK293/OS8Low-FcγRI cells (EC50): 0.06 ng/mL
B1: 445-3 (antibody, human IgG1, V domains shown)
VH: QVQLVQSGAEVKKPGSSVKVSCKASGYKFTSYIIHWVRQAPGQGLEWMGYINPYNEGTRYNQKFQGRVTLTADKSTSTAYMELSSLRSEDTAVYYCARGYYGSSYAMDYWGQGTTVTVSS
VL: DIQMTQSPSSLSASVGDRVTITCRASQGISNYLNWYQQKPDGAIKLLIYDASTLYSGVPSRFSGSGSGTDFTLTISSLQPEDFATYYCQQYSKLPYTFGGGTKVEIK
